Source: patent CN112480250A (UNIV SHANGHAI JIAOTONG, dated 2021)

Molecular target: 重组人OPN-R (OPN-N端蛋白, 重组骨桥蛋白N端活性结构域 osteopontin I17-R167) (human)
Experiment: ForteBio BLI, biotinylated OPN-R on streptavidin sensor, antibody at 50-300 nmol/L, 1:1 model

Sequence of 重组人OPN-R (OPN-N端蛋白, 重组骨桥蛋白N端活性结构域 osteopontin I17-R167) (human) (chain, as listed by the source): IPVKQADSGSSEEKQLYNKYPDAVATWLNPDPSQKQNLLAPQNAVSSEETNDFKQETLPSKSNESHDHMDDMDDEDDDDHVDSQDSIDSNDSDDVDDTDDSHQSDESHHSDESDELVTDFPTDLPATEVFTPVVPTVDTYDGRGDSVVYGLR

Kd: 4.55 nM
B1: 抗OPN嵌合抗体(抗体72B) (antibody, V domains shown)
VH: EVMLVESGGGLLKPGGSLKLSCAASGFTFSSYAMSWVRQTPEKRLEWVATITSGGSYTNYSDSVKGRITISRDNAKNTLYLQMSSLRSEDTAMYYCAREGPAWFAYWGQGTLVTVSA
VL: DIVMTQTPLSLPVSLGDQASISCRSSQSIVHSNGNTYLEWYLQKPGQSPKLLIYKVSNRFSGVPDRFSGSGSGTDFTLKISRVEAEDLGVYYCFQGSHVPPTFGGGTKLEIKR
notes: Mouse/human IgG1 chimera made by overlap PCR and expressed in HEK293E; also called 72B抗体; OPN-Ab(72B)
